Experimental data reported in the nanobody polyreactivity screen of Harvey et al. (2022).

Assay: yeast display, Sf9 membrane polyspecificity reagent, FACS + sequencing; frameworks hold sequencing errors
Summary of the method: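 Galactose-induced (36–48 hours) yeast carrying a synthetic nanobody display library were exposed to 10% biotinylated, detergent-solubilized Sf9 membrane reagent at 4 °C for 1 hour. FACS followed streptavidin microbead enrichment, using low and high (top ~1%) gates for expression (anti-HA) and reagent binding (streptavidin). Colony PCR, MiSeq 2 × 250 sequencing and CDR-length filtering followed. Labels for polyreactivity reflect the gate of origin.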

| Sequence | polyreactivity (PSR sort gate) |
| --- | --- |
| QVQLVESGGGLVQAGGSLRLSCAASGSTFSVYAMGWYRQAPGKERELVAAITWSGGSTYYADSVKGRFTISRDNAKNTVYLQMNSLKPEDTAVYYCAARYGRIHWKANWPEYGYWGQGTQVTVSS | low polyreactivity |
| QVQLVESGGGLVQAGGSLRLSCAASGSTFSVYAMGWYRQAPGKERELVADNTRGGSTYADSVKGRFTISRDNAKNTVYLQMNSLKPEDTAVYYCAREEVTPYPLYWSTREYDYWGQGTQVTVSS | low polyreactivity |
| QVQLVESGGGLVQAGGSLRLSCAASGSTFSVYAMGWYRQAPGKERELVATITWNGGRTYYADSVKGRFTISRDNAKNTVYLQMNSLKREDTAVYYCASPWLKPGNGIYGGYGYWGQGTQVTVSS | high polyreactivity |
| QVQLVESGGGLVQAGGSLRLSCAASGSTFSWNTMGWYRQAPGNERELVAAINSGGSTYYADSVKGRFTISRDNAKNTVYLQMNSLIPEDTAVYYCASRTKYYGRFDYWGQGTQVTVSS | low polyreactivity |
| QVQLVESGGGLVQAGGSLRLSCAASGSTFSYNAMGWYIQAPGKERELVAAISWSGGSTYYADSVKGRFTISRDYAKNTVYLQMNSLKPEDTAVYYCAADSPYGYYEGDYWGQGTQVTVSS | low polyreactivity |
| QVQLVESGGGLVQAGGSLRLSCAASGSTFSYNAMGWYRQAPGKERELVAAFSFISGSTYYADSVKGRFTISRDNAKNTVYLQMNSLKPEDTAVYFCAKRYRLRGRYDYWGQGTQVTVSS | high polyreactivity |
| QVQLVESGGGLVQAGGSLRLSCAASGSTFSYNTMGWYRQAPGKERELVATIDFNGGSTYYADSVKGRFTISRDNAKNTVYLQMNSLKPEDTAVYYCNADRYPYWGYDYWGQGTQVTVSS | low polyreactivity |
| QVQLVESGGGLVQAGGSLRLSCAASGSTFSYYALGWYRQAPGKEREFVAAISRSGGRTYYADSVKGRFTFSRDNAKNTVYLQMNSLKPEDTAVYYCATVYYYDFSRTHPWPGDYWGQGTQVTVSS | high polyreactivity |
| QVQLVESGGGLVQAGGSLRLSCAASGSTFSYYAMGGYRQEPGKERELVAAISRGTRTYYADSVKGSFSISRDNAKNTVYLLMNSLKAEDTAVYYCAADLWYTRYYYWGQGTQVTVSS | high polyreactivity |
| QVQLVESGGGLVQAGGSLRLSCAASGSTFSYYAMGWYIQAAGKERELVADITLNGGDTYYADSVKGRFTISRDNAKNTVYLQMNSLKPEDTAVYYCAKDSTADELTGFDYWGQGTQVTVSS | low polyreactivity |
| QVQLVESGGGLVQAGGSLRLSCAASGSTFSYYAMGWYRQAPGKEREFVAAISYSTTSTFYADSVKGRFTISRDNAKNTVYLQMNSLKPEDTAVYYCAARARYSPATYDYWGQGTQVTVSS | high polyreactivity |
| QVQLVESGGGLVQAGGSLRLSCAASGSTFSYYAMGWYRQAPGKEREFVASISWRGGSTYYADSVKGRFTISRDNAKNTVYLQMNRLKPEDTAVYYCAASSRSRWSGYRYDYWGQGTQVTVSS | high polyreactivity |
| QVQLVESGGGLVQAGGSLRLSCAASGSTFSYYAMGWYRQAPGKERELVAAISGRGGSTYYADSVKGRFTISRDNAKNTVYLQMNSLKPEDTAVYYCAKGRLYTAYGLYSWGQGTQVTVSS | high polyreactivity |
| QVQLVESGGGLVQAGGSLRLSCAASGSTFSYYAMGWYRQAPGKERELVAAISSRGGSTYYADSVKGRFTISRDNAKNTVYLQMNSQKPEDTAVYYCNADHQFRSSVSGDHDYWGQGTQVTVSS | high polyreactivity |
| QVQLVESGGGLVQAGGSLRLSCAASGSTFSYYAMGWYRQAPGKERELVAAISWSGGSTYYADSVKGRFTISRDNAKNTVYLQMNSLKPEDTAVYYCAIVTRKTYYVGNGDYWGQGTQVTVSS | high polyreactivity |
| QVQLVESGGGLVQAGGSLRLSCAASGSTFSYYAMGWYRQAPGKERELVAANTSGCRSKYADSVKGRFTISRDNAKNTVYLQINSLKPEDTAVYYCAKRIENFSGSLAGRWYDYWGQGTQVNVSS | high polyreactivity |
| QVQLVESGGGLVQAGGSLRLSCAASGSTFSYYAMGWYRQAPGKERELVADISSGGSTNYADSVKGRFTISRDNAKNTVYLQMNSLKPEDTAVYYCNRRYSYYDGFDYWGQGTQVTLSS | low polyreactivity |
| QVQLVESGGGLVQAGGSLRLSCAASGSTFSYYDMGWYREAPGKERELVAVITTSGVSTYYADSVKGRFTISRDNAKNTVYLQMNSLKPEDTAVYYCNADYGYDSVVEYDYWGQGTQVTVSS | low polyreactivity |
| QVQLVESGGGLVQAGGSLRLSCAASGSTFSYYGMGWYRQAPGKERELVAAIDYSGDSTYYADSVKGRFTISRDNAKNTVYLQMNSMKPEDTALYYCNAAHSVRHYAIHLGYWGQGTQVTVSS | low polyreactivity |
| QVQLVESGGGLVQAGGSLRLSCAASGSTFSYYTMGWYRQAPGKERELVAAISRTGGSTYYADSVKGRFTISRDNAKNTVYLQMNSLKPEDTAVYYCAAKGYVGRYDYWGQGTQVTVSS | high polyreactivity |
| QVQLVESGGGLVQAGGSLRLSCAASGSTFTDNTMGWYRQAPGKERELVAAISGVGSTYYADSVKGRFTISRDNAKNTVYLQLNSLKPEVSAVYYCAKPYYDGRTHFVSWGQGTQVTVSS | low polyreactivity |
| QVQLVESGGGLVQAGGSLRLSCAASGSTFTDYAMGWYRQAPGKERELVAAIDSGGITNYADSVKGRFTISRDNAKNTVYLQMNSLKPEDTAVYYCNADSSKFYSHGEYEYWGQGTQVTVSS | low polyreactivity |

| Sequence | polyreactivity (PSR sort gate) |
| --- | --- |
| QVQLVESGGGLVQAGGSLRLSCAASGSTFTDYAMGWYRQAPGKERELVAAITKSGGSTYYADSVKGRFTISRDNAKNTVYLQMNSLKPEDTAVYYCAAGNHRRPADYGSWGQGTQVTVSS | low polyreactivity |
| QVQLVESGGGLVQAGGSLRLSCAASGSTFTDYDMGWYRQAPGKERELVAAISSGGSTYYADSVKGRFTISRDNAKNTVYLQMNSLKPEDTAVYYCAAVLGVWGGVGSEGDYWGQGTQVTVSS | low polyreactivity |
| QVQLVESGGGLVQAGGSLRLSCAASGSTFTENAMGWYRQAPGKERELVATISTSDGSTHYADSVKGRFTISRDNAKNTVYLQMNSLKPEDTAVSYCAARPDYYLWHGYYTRRHYYWGQGTQVTVSS | low polyreactivity |
| QVQLVESGGGLVQAGGSLRLSCAASGSTFTFNAMGWYRQAPGKERELVAVISSGGSTYYADSVKGRFTISRDNAKNTVYLQMNSLKPEDTAVYYCNKVYGYFGQYYLRYNYWGQGTQVTVSS | low polyreactivity |
| QVQLVESGGGLVQAGGSLRLSCAASGSTFTFNAMGWYRQATGKERELVAAITRSGTSTYYADSVKGRFTISRDNAKNTVYLQMNSLKPEDNAVYYCAAGRLWKTYEYYYWGQGTQVTVSS | high polyreactivity |
| QVQLVESGGGLVQAGGSLRLSCAASGSTFTFYAMGWYRQAPGKQRELVATISSSGVSTSYADSVKGRFTISRDNAKNTVDLEMNSLKPEDTAVYYCNAGYRRRFIFDYWGQGTQVTVSS | low polyreactivity |
| QVQLVESGGGLVQAGGSLRLSCAASGSTFTGYTMGWYRQAPGKEREFVAAISSRGGSTYYADSVKGRFTISRDNAKNTVFLQMNSLKPEETAVYYCAAKVWARVDGRQFRMEYWGQGTQVTVSS | high polyreactivity |
| QVQLVESGGGLVQAGGSLRLSCAASGSTFTKYSMGWYRQAPGKERELVAAITGSGGRTYYADSEKGRFTISRDNAKNTVYLQMNSLKPEDTAVYYCAAEKAAGWYSGYDYWGQGTQVTVSS | high polyreactivity |
| QVQLVESGGGLVQAGGSLRLSCAASGSTFTLNAMGWYRQAPGKERELVADISWSSGRTYYADSVKGRFTISRDTAKNTVYLQMNSLKPEDTAVYYCATEDFWNVKFYAYYPEFDYWGQGTQVTVSS | low polyreactivity |
| QVQLVESGGGLVQAGGSLRLSCAASGSTFTLYAMGWSRPAPGKERELVATISWNGGRTYYADSVKGRFTISRDNAKNTVYLQMNSLKPEDTAVYYCAADTYDADYDYWGQGTQVTVSS | high polyreactivity |
| QVQLVESGGGLVQAGGSLRLSCAASGSTFTLYAMGWYRQAPGKERELVASITASDGSTSYADSVKGRFTISRDNAKNTVYLQMNSLKPEDTAVYYCAARYRVRGISYYYWGQGTQVTVSS | low polyreactivity |
| QVQLVESGGGLVQAGGSLRLSCAASGSTFTLYAMGWYRQAPGKERELVATITGSGGSTNYADSVKGRFTISRDNAKNTVYLQMNSLKPEDTAVYYCAADYAVYSFTEFNYWGHGTQVTVSS | high polyreactivity |
| QVQLVESGGGLVQAGGSLRLSCAASGSTFTNYAMGWYRQAPGKERELVAAIDRRDGTTYYADSVKGRFTISRDNAKNTVYLQMNSLKPEDTAVYYCAADRDYSADVPGYYYWGQGTQVTVSS | low polyreactivity |
| QVQLVESGGGLVQAGGSLRLSCAASGSTFTPNAMGWYRQAPGKERELVAAINWSDSSTYYADSVKGRFTISRDNAKNTVYLQMNSLKPEETAVYYCAAAAQYGQLQVPVYYWGQGTQVTVSS | low polyreactivity |
| QVQLVESGGGLVQAGGSLRLSCAASGSTFTPYAMGWYRQAPGKERELVAAISWSDDSTYYADSVKGRFTISRDNAKNTVYLQMNSLKPEDTAVYYCAASAYVDYGVYTYIMDYWGQGTQVTVSS | high polyreactivity |
| QVQLVESGGGLVQAGGSLRLSCAASGSTFTPYAMGWYRQAPGKERELVAAITWRGGSTYYADSVKGRFTISRDNAKNTVYLQMNSLKPEDTAVYYCAAEDYLYFFYAYGYWGQGTQVTVSS | high polyreactivity |
| QVQLVESGGGLVQAGGSLRLSCAASGSTFTPYTMGWYRQAPGKERELVATITGSDGSTYYADSVKGRFTISRDNAKNTVYLQMNSLKPEDTAVYYCYADETRWTWDPFSYICDDYWGQGTQVTVSS | low polyreactivity |
| QVQLVESGGGLVQAGGSLRLSCAASGSTFTPYVMGWYRQAPGKEREMVASITGGGGSTYADSVKGRFTISRDNAKNTVYVQMNSLKPEDTAVYYCAAELYRSNVYHYDYWGQGSQVTVSS | high polyreactivity |
| QVQLVESGGGLVQAGGSLRLSCAASGSTFTRNAMGWYRQAPGKERELVAVISSRGGRTYYADSVKGRFTISRDNAKNTVYLQMNSLKPEDTAVYYCAARYVIPLGNSYDYWGQGTQVTVSS | high polyreactivity |
| QVQLVESGGGLVQAGGSLRLSCAASGSTFTRYAMGWYRQEPGKERELVAAITRRGVSTYYSDSVKGRFTISLDNAKNTVYLQMNSLKPEDTAVYYCNADVEHYSTLSEYWGQGTQVTVSS | high polyreactivity |
| QVQLVESGGGLVQAGGSLRLSCAASGSTFTSNTRWYRPAPGKERELVAAISSSGRTYYADSVKGRFTISRDNAKNTVYLQMNSLKPEDTAVYYCAARGREFGYWGQGTQVTVSS | high polyreactivity |
